Assay results published in PMC4087533 (Nature, 2014).

B1: ammonia channel AmtB from E. coli (tag-removed) (natural protein)
chain: GASVADKADNAFMMICTALVLFMTIPGIALFYGGLIRGKNVLSMLTQVTVTFALVCILWVVYGYSLAFGEGNNFFGNINWLMLKNIELTAVMGSIYQYIHVAFQGSFACITVGLIVGALAERIRFSAVLIFVVVWLTLSYIPIAHMVWGGGLLASHGALDFAGGTVVHINAAIAGLVGAYLIGKRVGFGKEAFKPHNLPMVFTGTAILYIGWFGFNAGSAGTANEIAALAFVNTVVATAAAILGWIFGEWALRGKPSLLGACSGAIAGLVGVTPACGYIGVGGALIIGVVAGLAGLWGVTMLKRLLRVDDPCDVFGVHGVCGIVGCIMTGIFAASSLGGVGFAEGVTMGHQLLVQLESIAITIVWSGVVAFIGYKLADLTVGLRVPEEQEREGLDVNSHGENAYNA

Legend:
[1] = biological target: mechanosensitive channel of large conductance (MscL) from Mycobacterium tuberculosis (tag-removed) (Mycobacterium tuberculosis); experiment: native MS
native MS = biological target: the molecule itself; experiment: native MS

Molecule | stoichiometry N [1] | stoichiometry N (native MS)
mechanosensitive channel of large conductance (MscL) from Mycobacterium tuberculosis (tag-removed) (natural protein) | 5 | –
B1 | – | 3
